{"source": "paper PMC8577158", "about": "“Phylogenetic analysis and in-depth characterization of functionally and structurally diverse CE5 cutinases” (The Journal of Biological Chemistry, 2021)", "key": {"[1]": {"system": "CCCCCCCCCCCC(=O)Oc1ccc([N+](=O)[O-])cc1", "assay": "purified protein", "details": "50 mM sodium phosphate pH 7, 40 °C"}, "[2]": {"system": "CCCCCCCCCCCCCCCC(=O)Oc1ccc([N+](=O)[O-])cc1", "assay": "purified protein", "details": "50 mM sodium phosphate pH 7, 40 °C"}, "[3]": {"system": "CCCC(=O)Oc1ccc([N+](=O)[O-])cc1", "assay": "purified protein", "details": "50 mM sodium phosphate pH 7, 40 °C"}, "[4]": {"system": "CCCCCCCC(=O)Oc1ccc([N+](=O)[O-])cc1", "assay": "purified protein", "details": "50 mM sodium phosphate pH 7, 40 °C"}, "FsCut": {"target": "T1, FsCut (Fusarium vanettenii, UniProt P00590)", "T1 construct": "gene CUT1", "T1 sequence (P00590 32-230)": "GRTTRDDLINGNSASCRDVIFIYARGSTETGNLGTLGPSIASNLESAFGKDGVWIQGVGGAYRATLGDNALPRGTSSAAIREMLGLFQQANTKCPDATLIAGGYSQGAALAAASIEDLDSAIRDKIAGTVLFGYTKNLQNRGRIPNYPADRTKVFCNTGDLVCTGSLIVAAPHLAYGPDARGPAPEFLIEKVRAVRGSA", "assay": "pNP release at […] nm, nonlinear Michaelis-Menten fit", "details": "read-out: FsCut; 50 mM sodium phosphate pH 7, 40 °C"}, "purified protein [5]": {"substrate": "CCCC(=O)Oc1ccc([N+](=O)[O-])cc1", "assay": "purified protein", "type": "biochemical, Thermothielavioides terrestris", "details": "50 mM sodium phosphate pH 7, 40 °C"}, "purified protein [6]": {"substrate": "CCCCCCCC(=O)Oc1ccc([N+](=O)[O-])cc1", "assay": "purified protein", "type": "biochemical, Thermothielavioides terrestris", "details": "50 mM sodium phosphate pH 7, 40 °C"}, "purified protein [7]": {"substrate": "CCCCCCCCCCCC(=O)Oc1ccc([N+](=O)[O-])cc1", "assay": "purified protein", "type": "biochemical, Thermothielavioides terrestris", "details": "50 mM sodium phosphate pH 7, 40 °C"}, "purified protein [8]": {"substrate": "CCCCCCCCCCCCCCCC(=O)Oc1ccc([N+](=O)[O-])cc1", "assay": "purified protein", "type": "biochemical, Thermothielavioides terrestris", "details": "50 mM sodium phosphate pH 7, 40 °C"}, "purified protein [9]": {"substrate": "CCCC(=O)Oc1ccc([N+](=O)[O-])cc1", "assay": "purified protein", "type": "biochemical, Coprinopsis cinerea", "details": "50 mM sodium phosphate pH 7, 40 °C"}, "purified protein [10]": {"substrate": "CCCCCCCC(=O)Oc1ccc([N+](=O)[O-])cc1", "assay": "purified protein", "type": "biochemical, Coprinopsis cinerea", "details": "50 mM sodium phosphate pH 7, 40 °C"}, "purified protein [11]": {"substrate": "CCCCCCCCCCCC(=O)Oc1ccc([N+](=O)[O-])cc1", "assay": "purified protein", "type": "biochemical, Coprinopsis cinerea", "details": "50 mM sodium phosphate pH 7, 40 °C"}, "purified protein [12]": {"substrate": "CCCCCCCCCCCCCCCC(=O)Oc1ccc([N+](=O)[O-])cc1", "assay": "purified protein", "type": "biochemical, Coprinopsis cinerea", "details": "50 mM sodium phosphate pH 7, 40 °C"}, "purified protein [13]": {"substrate": "CCCC(=O)Oc1ccc([N+](=O)[O-])cc1", "assay": "purified protein", "type": "biochemical, Cryptococcus sp. S-2", "details": "50 mM sodium phosphate pH 7, 40 °C"}, "purified protein [14]": {"substrate": "CCCCCCCC(=O)Oc1ccc([N+](=O)[O-])cc1", "assay": "purified protein", "type": "biochemical, Cryptococcus sp. S-2", "details": "50 mM sodium phosphate pH 7, 40 °C"}, "purified protein [15]": {"substrate": "CCCCCCCCCCCC(=O)Oc1ccc([N+](=O)[O-])cc1", "assay": "purified protein", "type": "biochemical, Cryptococcus sp. S-2", "details": "50 mM sodium phosphate pH 7, 40 °C"}, "purified protein [16]": {"substrate": "CCCCCCCCCCCCCCCC(=O)Oc1ccc([N+](=O)[O-])cc1", "assay": "purified protein", "type": "biochemical, Cryptococcus sp. S-2", "details": "50 mM sodium phosphate pH 7, 40 °C"}}, "data": [{"molecule": "PbCut (Pyrenopeziza brassicae)", "values": [{"measurement": "Km", "setting": "[1]", "value": "80 ± 10", "unit": "µM"}, {"measurement": "kcat", "setting": "[1]", "value": 0.2, "unit": "s⁻¹"}, {"measurement": "kcat/Km", "setting": "[1]", "value": "2500 ± 180", "unit": "M⁻¹ s⁻¹"}, {"measurement": "Km", "setting": "[2]", "value": "40 ± 10", "unit": "µM"}, {"measurement": "kcat", "setting": "[2]", "value": 0.08, "unit": "s⁻¹"}, {"measurement": "kcat/Km", "setting": "[2]", "value": "2070 ± 250", "unit": "M⁻¹ s⁻¹"}, {"measurement": "Km", "setting": "[3]", "value": "1710 ± 170", "unit": "µM"}, {"measurement": "kcat", "setting": "[3]", "value": "6.45 ± 0.52", "unit": "s⁻¹"}, {"measurement": "kcat/Km", "setting": "[3]", "value": "3790 ± 70", "unit": "M⁻¹ s⁻¹"}, {"measurement": "Km", "setting": "[4]", "value": "540 ± 70", "unit": "µM"}, {"measurement": "kcat", "setting": "[4]", "value": "1.43 ± 0.09", "unit": "s⁻¹"}, {"measurement": "kcat/Km", "setting": "[4]", "value": "2650 ± 190", "unit": "M⁻¹ s⁻¹"}]}, {"molecule": "FsCut (Fusarium vanettenii)", "values": [{"measurement": "Km", "setting": "[1]", "value": "50 ± 10", "unit": "µM"}, {"measurement": "kcat", "setting": "[1]", "value": "1.22 ± 0.03", "unit": "s⁻¹"}, {"measurement": "kcat/Km", "setting": "[1]", "value": "22800 ± 2090", "unit": "M⁻¹ s⁻¹"}, {"measurement": "Km", "setting": "[2]", "value": "10 ± 0", "unit": "µM"}, {"measurement": "kcat", "setting": "[2]", "value": 0.15, "unit": "s⁻¹"}, {"measurement": "kcat/Km", "setting": "[2]", "value": "10600 ± 1060", "unit": "M⁻¹ s⁻¹"}, {"measurement": "Km", "setting": "[4]", "value": "720 ± 10", "unit": "µM"}, {"measurement": "kcat", "setting": "[4]", "value": "6.69 ± 0.24", "unit": "s⁻¹"}, {"measurement": "kcat/Km", "setting": "[4]", "value": "9250 ± 260", "unit": "M⁻¹ s⁻¹"}]}, {"molecule": "CCCC(=O)Oc1ccc([N+](=O)[O-])cc1", "note": "[pNP-C4]", "values": [{"measurement": "Km", "setting": "FsCut", "value": "1670 ± 40", "unit": "µM"}]}, {"molecule": "TtCut (Thermothielavioides terrestris NRRL 8126) (protein) APTQPAGEAAVEARQLFSDTANDLENGVSSNCPKVIFICARGSTETGNLGSSVCPEVANGLKNYYPNQLWVQGVGGAYTADLASNALPGGTSTAAMQEAANMFNLAQQKCPNASVAAGGYSQGTAVVAGGIQSLSAAAKDQIKGVVLFGYTQAQQNHDTIPNFPVDKTMIFCAQGDLVCNGTLIVTAAHFSYITNGDASTKGPAWLHEKIGDA", "values": [{"measurement": "Km", "setting": "purified protein [5]", "value": "7080 ± 90", "unit": "µM"}, {"measurement": "Km", "setting": "purified protein [6]", "value": "390 ± 10", "unit": "µM"}, {"measurement": "kcat", "setting": "purified protein [6]", "value": "2.3 ± 0.06", "unit": "s⁻¹"}, {"measurement": "kcat/Km", "setting": "purified protein [6]", "value": "5810 ± 50", "unit": "M⁻¹ s⁻¹"}, {"measurement": "Km", "setting": "purified protein [7]", "value": "210 ± 0", "unit": "µM"}, {"measurement": "Km", "setting": "purified protein [8]", "value": "500 ± 90", "unit": "µM"}]}, {"molecule": "CcCut (Coprinopsis cinerea) (protein) QLFCRDVYVFFARGTGEVGTLGTVVGPGLSAAVKLAVRDSVEFEGIDYPALVSGYLAGGDRGGARTMANKVSQTASRCPNAKIFISGYSQGAQVTHLAARQLSAADQARVTGVVTFGDPYRDDALPGGLQSRRKTYCNVGDLICAGLPTLLAPHFTYGSDTPDAARWIAARV", "values": [{"measurement": "Km", "setting": "purified protein [9]", "value": "3560 ± 150", "unit": "µM"}, {"measurement": "kcat", "setting": "purified protein [9]", "value": "8.96 ± 0.39", "unit": "s⁻¹"}, {"measurement": "kcat/Km", "setting": "purified protein [9]", "value": 2520, "unit": "M⁻¹ s⁻¹"}, {"measurement": "Km", "setting": "purified protein [10]", "value": "1670 ± 180", "unit": "µM"}, {"measurement": "Km", "setting": "purified protein [11]", "value": "2760 ± 50", "unit": "µM"}, {"measurement": "Km", "setting": "purified protein [12]", "value": "2900 ± 200", "unit": "µM"}]}, {"molecule": "CspCut (Cryptococcus sp. S-2) (protein) ATSSACPQYVLINTRGTGEPQGQSAGFRTMNSQITAALSGGTIYNTVYTADFSQNSAAGTADIIRRINSGLAANPNVCYILQGYSQGAAATVVALQQLGTSGAAFNAVKGVFLIGNPDHKSGLTCNVDSNGGTTTRNVNGLSVAYQGSVPSGWVSKTLDVCAYGDGVCDTAHGFGINAQHLSYPSDQGVQTMGYKFAVNKLGGSA", "values": [{"measurement": "Km", "setting": "purified protein [13]", "value": "5540 ± 500", "unit": "µM"}, {"measurement": "kcat", "setting": "purified protein [13]", "value": "13.5 ± 0.25", "unit": "s⁻¹"}, {"measurement": "kcat/Km", "setting": "purified protein [13]", "value": "2510 ± 270", "unit": "M⁻¹ s⁻¹"}, {"measurement": "Km", "setting": "purified protein [14]", "value": "50 ± 0", "unit": "µM"}, {"measurement": "kcat", "setting": "purified protein [14]", "value": "3.81 ± 0.27", "unit": "s⁻¹"}, {"measurement": "kcat/Km", "setting": "purified protein [14]", "value": "83200 ± 4200", "unit": "M⁻¹ s⁻¹"}, {"measurement": "Km", "setting": "purified protein [15]", "value": "50 ± 0", "unit": "µM"}, {"measurement": "kcat", "setting": "purified protein [15]", "value": "3.49 ± 0.06", "unit": "s⁻¹"}, {"measurement": "kcat/Km", "setting": "purified protein [15]", "value": "65970 ± 600", "unit": "M⁻¹ s⁻¹"}, {"measurement": "Km", "setting": "purified protein [16]", "value": "50 ± 0", "unit": "µM"}, {"measurement": "kcat", "setting": "purified protein [16]", "value": "3.38 ± 0.12", "unit": "s⁻¹"}, {"measurement": "kcat/Km", "setting": "purified protein [16]", "value": "70700 ± 6470", "unit": "M⁻¹ s⁻¹"}]}]}
